Assay results taken from publication PMC7458312, “Anthrax toxin component, Protective Antigen, protects insects from bacterial infections” (PLoS Pathogens, 2020).

Legend:
[1] = molecular target: T1, human recombinant PGRP-S (also called PGLYRP1) (human, UniProt O75594 22-196); assay: ELISA; […]) or 5% BSA ([…]; conditions: both partners purified
T1 construct: also called PRGP-S; human PGRP-SA ortholog
T1 sequence (looked up): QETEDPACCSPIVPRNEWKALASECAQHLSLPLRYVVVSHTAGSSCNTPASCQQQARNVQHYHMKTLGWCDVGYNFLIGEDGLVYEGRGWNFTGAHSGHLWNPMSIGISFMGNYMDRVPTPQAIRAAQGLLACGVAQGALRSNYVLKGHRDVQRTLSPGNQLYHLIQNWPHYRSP

[2] = molecular target: T2, Drosophila melanogaster peptidoglycan-recognition protein-SA (PGRP-SA), T7-tagged (D. melanogaster, UniProt Q9VYX7 27-203); assay: ELISA; […]) or 5% BSA ([…]; conditions: both partners purified
T2 construct: also called PRGP-SA
T2 sequence (looked up): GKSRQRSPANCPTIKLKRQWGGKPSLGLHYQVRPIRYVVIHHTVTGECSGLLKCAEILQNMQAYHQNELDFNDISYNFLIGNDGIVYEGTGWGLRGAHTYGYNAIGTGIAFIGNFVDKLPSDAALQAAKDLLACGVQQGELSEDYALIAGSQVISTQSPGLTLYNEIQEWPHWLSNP

B1: PA20, 20 kDa subunit of anthrax toxin Protective Antigen (PA83) (domain or fragment)
chain: EVKQENRLLNESESSSQGLLGYYFSDLNFQAPMVVTSSTTGDLSIPSSELENIPSENQYFQSAIWSGFIKVKKSDEYTFATSADNHVTMWVDDQEVINKASNSNKIRLEKGRLYQIKIQYQRENPTEKGLDFKLYWTDSQNKKEVISSDNLQLPELKQKSSNS
notes: also called pelB-PA20-6His
binding result [1]: binds | binding result [2]: binds
